The source of these data is publication PMC3787792.

Experiment in all cases: SEC + other: SDS-PAGE
Assay [1] has as its target IgG1-Fc variant S354P (soluble) (human).
Assay [2] addresses IgG1-Fc variant S424T (soluble) (human).
Assay [3] deals with IgG1-Fc variant K360Q (soluble) (human).
The target in assay [4] is IgG1-Fc variant K392R (soluble) (human).
The target of assay [5] is IgG1-Fc variant S400F (soluble) (human).
The target in assay [6] is IgG1-Fc variant Q418L (soluble) (human).
Assay [7] deals with IgG1-Fc variant K360E (soluble) (human).
Assay [8] addresses IgG1-Fc variant T437I (soluble) (human).
The target of assay [9] is IgG1-Fc variant Q347E (soluble) (human).
Assay [10] concerns the target IgG1-Fc variant Q438K (soluble) (human).
In assay [11] the target is IgG1-Fc variant N421D (soluble) (human).
Assay [12] addresses IgG1-Fc variant Q438R (soluble) (human).

Take “IgG1-Fc variant S354P (soluble) (domain or fragment)”: the stoichiometry N (usually the number of molecules, sites or subunits per partner or assembly) in [1] is 2.

“IgG1-Fc variant S424T (soluble) (domain or fragment)”: the stoichiometry N in assay [2] came to 2. Regarding “IgG1-Fc variant K360Q (soluble) (domain or fragment)”, the stoichiometry N in assay [3] stood at 2.

Regarding “IgG1-Fc variant K392R (soluble) (domain or fragment)”, the stoichiometry N in assay [4] was determined as 2. As for “IgG1-Fc variant S400F (soluble) (domain or fragment)”, the stoichiometry N in assay [5] stood at 2. Consider “IgG1-Fc variant Q418L (soluble) (domain or fragment)”, for which the stoichiometry N in [6] was determined as 2. “IgG1-Fc variant K360E (soluble) (domain or fragment)”: the stoichiometry N in [7] stood at 2. Turning to “IgG1-Fc variant T437I (soluble) (domain or fragment)”, in [8], the stoichiometry N is 2. As to “IgG1-Fc variant Q347E (soluble) (domain or fragment)”, the stoichiometry N in [9] is 2. Regarding “IgG1-Fc variant Q438K (soluble) (domain or fragment)”, in [10], the stoichiometry N worked out at 2. “IgG1-Fc variant N421D (soluble) (domain or fragment)”: the stoichiometry N in assay [11] was determined as 2. Take “IgG1-Fc variant Q438R (soluble) (domain or fragment)”: the stoichiometry N in assay [12] was found to be 2.
